This passage reports EC50 results from patent EP4700044A1, “PROTEIN ANALOGUE AND USE THEREOF” (Shanghai Duomirui Biotechnology., Ltd., priority 2023, dated 2024).

What is called EC50 is the concentration at which the effect is half-maximal. Read a low EC50 as higher potency in that assay.

The target in this assay is T1, FGFR1c and the cofactor β-Klotho (Homo sapiens, UniProt P11362+Q86Z14).
T1 construct: host or cells: iLite FGF21 assay ready cells (genetically engineered reporter gene cell line)
The assay can be described thus: dual-luciferase reporter gene assay in iLite FGF21 assay ready cells. Type of assay: cell-based. The text has this: iLite FGF21 assay ready cells (purchased from SAVR) is a genetically engineered reporter gene cell line that responds to signals downstream to FGF21 agonism through the expression of firefly luciferase. The receptor FGFR1c and the cofactor β-Klotho were co-overexpressed on the surface of iLite FGF21 assay ready cells and have undergone genetic optimization to enhance sensitivity, such that FGF21 will cause an increase in luciferase expression in a dose-response manner. The luciferase activity detection kit was purchased from Promega (catalog number #E2980).
iLite FGF21 assay ready cells were cultured adherently in basal medium (DMEM Gluta Max, purchased from Gibco) containing 10% fetal bovine serum (FBS, purchased from Gibco) and 1% penicillin/streptomycin (purchased from Gibco). For the activity determination experiment, […] cells per well and test samples such as FGF21 mutant proteins and FGF21 conjugate molecules modified with albumin-binding agent were added to all-white 96-well culture plates (purchased from Corning), and the chemiluminescence values were detected in a microplate reader according to the instructions of the luciferase activity detection kit. Finally, the half-maximal effective concentration (EC50) values of the tested samples were obtained by means of four-parameter fitting.

[1] abbreviates: Example 11, four-parameter fitting.
Where [2] appears, read: Example 6, four-parameter fitting.

T1 sequence (P11362 22-822): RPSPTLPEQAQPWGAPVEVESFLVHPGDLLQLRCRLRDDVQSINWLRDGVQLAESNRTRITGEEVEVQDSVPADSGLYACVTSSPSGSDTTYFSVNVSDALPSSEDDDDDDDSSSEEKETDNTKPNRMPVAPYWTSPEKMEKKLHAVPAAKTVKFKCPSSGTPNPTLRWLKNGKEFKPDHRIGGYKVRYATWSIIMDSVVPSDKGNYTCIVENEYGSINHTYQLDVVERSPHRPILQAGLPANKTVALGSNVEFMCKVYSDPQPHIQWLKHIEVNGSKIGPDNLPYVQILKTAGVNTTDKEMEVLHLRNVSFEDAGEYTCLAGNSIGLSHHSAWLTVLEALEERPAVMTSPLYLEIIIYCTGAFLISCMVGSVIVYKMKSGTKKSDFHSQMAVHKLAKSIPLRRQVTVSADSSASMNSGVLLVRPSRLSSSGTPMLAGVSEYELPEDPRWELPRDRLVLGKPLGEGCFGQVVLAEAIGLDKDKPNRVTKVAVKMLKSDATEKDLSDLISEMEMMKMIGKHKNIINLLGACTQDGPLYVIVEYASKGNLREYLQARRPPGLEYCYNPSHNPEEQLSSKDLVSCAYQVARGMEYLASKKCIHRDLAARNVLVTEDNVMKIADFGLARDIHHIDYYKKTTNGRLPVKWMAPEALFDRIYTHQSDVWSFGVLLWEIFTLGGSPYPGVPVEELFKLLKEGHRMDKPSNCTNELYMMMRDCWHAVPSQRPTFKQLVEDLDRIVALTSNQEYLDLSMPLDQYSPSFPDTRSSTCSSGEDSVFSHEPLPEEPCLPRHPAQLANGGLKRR
T1 sequence (Q86Z14 whole entry): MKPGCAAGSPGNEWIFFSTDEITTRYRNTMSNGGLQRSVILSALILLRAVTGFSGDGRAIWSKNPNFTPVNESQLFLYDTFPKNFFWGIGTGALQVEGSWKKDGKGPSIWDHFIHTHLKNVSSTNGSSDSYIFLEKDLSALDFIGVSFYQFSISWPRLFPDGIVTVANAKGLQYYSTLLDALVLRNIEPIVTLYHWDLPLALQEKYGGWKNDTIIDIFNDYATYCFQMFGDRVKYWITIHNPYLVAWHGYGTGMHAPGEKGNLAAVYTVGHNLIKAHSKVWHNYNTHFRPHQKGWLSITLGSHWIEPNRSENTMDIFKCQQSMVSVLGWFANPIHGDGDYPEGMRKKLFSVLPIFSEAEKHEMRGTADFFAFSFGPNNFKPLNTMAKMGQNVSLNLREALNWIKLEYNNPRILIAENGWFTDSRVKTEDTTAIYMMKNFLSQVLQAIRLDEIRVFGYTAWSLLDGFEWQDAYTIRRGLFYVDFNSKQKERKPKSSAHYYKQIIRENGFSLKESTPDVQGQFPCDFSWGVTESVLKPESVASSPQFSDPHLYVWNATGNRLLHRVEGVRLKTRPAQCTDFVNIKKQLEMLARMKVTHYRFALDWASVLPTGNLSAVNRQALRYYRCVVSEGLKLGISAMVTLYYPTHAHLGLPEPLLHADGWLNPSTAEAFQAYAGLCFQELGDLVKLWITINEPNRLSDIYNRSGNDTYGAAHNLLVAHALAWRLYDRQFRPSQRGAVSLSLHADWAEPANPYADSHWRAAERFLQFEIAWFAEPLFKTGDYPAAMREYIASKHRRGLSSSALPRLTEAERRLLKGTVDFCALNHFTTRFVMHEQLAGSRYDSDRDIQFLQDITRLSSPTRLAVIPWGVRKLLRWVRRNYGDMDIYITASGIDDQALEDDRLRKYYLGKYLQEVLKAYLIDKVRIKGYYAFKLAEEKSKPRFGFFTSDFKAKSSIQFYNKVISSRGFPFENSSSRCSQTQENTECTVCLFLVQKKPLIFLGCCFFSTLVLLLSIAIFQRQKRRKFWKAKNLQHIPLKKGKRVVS

B1: Compound 10.4: PAS-FGF21 dimer: PAS100FGF21 (SEQ ID NO: 16) modified by the side chain of Example 8.3 (conjugate)
chain: SPCASPAAPAPASPAAPAPSAPAAASAAAPAAASAAASAPSAASAAASPAAPSAPPAAASPAAPSAPPAAASPAAPAPASPAASAPSAPAAASPAAPAPASHPIPDSSPLLQFGGQVRQRYLYTDDAQQTEAHLEIREDGTVGGAADQSPESLLQLKALKPGVIQILGVKTSRFLCQRPDGALYGSLHFDPEACSFRERLLEDGYNVYQSEAHGLPLHLPGNKSPHRDPAPRGPARFLPLPGLPPAPPEPPGILAPQPPDVGSSDPLSMVGGSQGRSPSYES
modifications: dimer; side chain of Example 8.3
Molecule B1 registered an EC50 under setting [1] of 0.13 nM.

B2: Compound 10.5: PAS-FGF21 dimer: PAS200FGF21 (SEQ ID NO: 17) modified by the side chain of Example 8.3 (conjugate)
chain: SPCASPAAPAPASPAAPAPSAPAAASAAAPAAASAAASAPSAASAAASPAAPSAPPAAASPAAPSAPPAAASPAAPAPASPAASAPSAPAAASPAAPAPASPAAPAPSAPAAASAAAPAAASAAASAPSASAAASAAAPAAASAAASAPSAASSAASPAAPSAPPAAASPAAPSAPPAAASPAAPAPASPAAPAPSAPAAAHPIPDSSPLLQFGGQVRQRYLYTDDAQQTEAHLEIREDGTVGGAADQSPESLLQLKALKPGVIQILGVKTSRFLCQRPDGALYGSLHFDPEACSFRERLLEDGYNVYQSEAHGLPLHLPGNKSPHRDPAPRGPARFLPLPGLPPAPPEPPGILAPQPPDVGSSDPLSMVGGSQGRSPSYES
modifications: dimer; side chain of Example 8.3
As for B2, the EC50 under setting [1] amounted to 0.15 nM.

B3: Compound 5.4: FGF21K122C mutant (SEQ NO: 8) modified by the albumin-binding agent of Example 2.1 (conjugate)
chain: HPIPDSSPLLQFGGQVRQRYLYTDDAQQTEAHLEIREDGTVGGAADQSPESLLQLKALKPGVIQILGVKTSRFLCQRPDGALYGSLHFDPEACSFRERLLEDGYNVYQSEAHGLPLHLPGNCSPHRDPAPRGPARFLPLPGLPPAPPEPPGILAPQPPDVGSSDPLSMVGGSQGRSPSYES
modifications: albumin-binding agent of Example 2.1
Under setting [2], B3 yielded an EC50 of 0.99 nM.

B4: Compound 5.3: FGF21D46C mutant (SEQ NO: 7) modified by the albumin-binding agent of Example 2.1 (conjugate)
chain: HPIPDSSPLLQFGGQVRQRYLYTDDAQQTEAHLEIREDGTVGGAACQSPESLLQLKALKPGVIQILGVKTSRFLCQRPDGALYGSLHFDPEACSFRERLLEDGYNVYQSEAHGLPLHLPGNKSPHRDPAPRGPARFLPLPGLPPAPPEPPGILAPQPPDVGSSDPLSMVGGSQGRSPSYES
modifications: albumin-binding agent of Example 2.1
As for B4, the midpoint of the response under setting [2], the EC50, lay at 0.24 nM.

B5: Compound 5.12: FGF21H125C mutant (SEQ NO: 9) modified by the albumin-binding agent of Example 2.3 (conjugate)
chain: HPIPDSSPLLQFGGQVRQRYLYTDDAQQTEAHLEIREDGTVGGAADQSPESLLQLKALKPGVIQILGVKTSRFLCQRPDGALYGSLHFDPEACSFRERLLEDGYNVYQSEAHGLPLHLPGNKSPCRDPAPRGPARFLPLPGLPPAPPEPPGILAPQPPDVGSSDPLSMVGGSQGRSPSYES
modifications: albumin-binding agent of Example 2.3
Under setting [2], B5 showed an EC50 of 1.4 nM.

B6: Compound 5.8: FGF21K122C mutant (SEQ NO: 8) modified by the albumin-binding agent of Example 2.2 (conjugate)
chain: HPIPDSSPLLQFGGQVRQRYLYTDDAQQTEAHLEIREDGTVGGAADQSPESLLQLKALKPGVIQILGVKTSRFLCQRPDGALYGSLHFDPEACSFRERLLEDGYNVYQSEAHGLPLHLPGNCSPHRDPAPRGPARFLPLPGLPPAPPEPPGILAPQPPDVGSSDPLSMVGGSQGRSPSYES
modifications: albumin-binding agent conjugated
With B6, the EC50 under setting [2] turned out to be 1.13 nM.

B7: Compound 5.11: FGF21K122C mutant (SEQ NO: 8) modified by the albumin-binding agent of Example 2.3 (conjugate)
chain: HPIPDSSPLLQFGGQVRQRYLYTDDAQQTEAHLEIREDGTVGGAADQSPESLLQLKALKPGVIQILGVKTSRFLCQRPDGALYGSLHFDPEACSFRERLLEDGYNVYQSEAHGLPLHLPGNCSPHRDPAPRGPARFLPLPGLPPAPPEPPGILAPQPPDVGSSDPLSMVGGSQGRSPSYES
modifications: albumin-binding agent of Example 2.3
B7 registered an EC50 under setting [2] of 2.09 nM.

B8: Compound 5.10: FGF21D46C mutant (SEQ NO: 7) modified by the albumin-binding agent of Example 2.3 (conjugate)
chain: HPIPDSSPLLQFGGQVRQRYLYTDDAQQTEAHLEIREDGTVGGAACQSPESLLQLKALKPGVIQILGVKTSRFLCQRPDGALYGSLHFDPEACSFRERLLEDGYNVYQSEAHGLPLHLPGNKSPHRDPAPRGPARFLPLPGLPPAPPEPPGILAPQPPDVGSSDPLSMVGGSQGRSPSYES
modifications: albumin-binding agent of Example 2.3
As to B8, the response under setting [2] was half-maximal at 2.69 nM (EC50).

B9: Compound 5.1: FGF21E30C mutant (SEQ NO: 5) modified by the albumin-binding agent of Example 2.1 (conjugate)
chain: HPIPDSSPLLQFGGQVRQRYLYTDDAQQTCAHLEIREDGTVGGAADQSPESLLQLKALKPGVIQILGVKTSRFLCQRPDGALYGSLHFDPEACSFRERLLEDGYNVYQSEAHGLPLHLPGNKSPHRDPAPRGPARFLPLPGLPPAPPEPPGILAPQPPDVGSSDPLSMVGGSQGRSPSYES
modifications: albumin-binding agent of Example 2.1
Under setting [2], B9 registered a concentration for a half-maximal effect (EC50) of 4.61 nM.

B10: Compound 5.6: FGF21D38C mutant (SEQ NO: 6) modified by the albumin-binding agent of Example 2.2 (conjugate)
chain: HPIPDSSPLLQFGGQVRQRYLYTDDAQQTEAHLEIRECGTVGGAADQSPESLLQLKALKPGVIQILGVKTSRFLCQRPDGALYGSLHFDPEACSFRERLLEDGYNVYQSEAHGLPLHLPGNKSPHRDPAPRGPARFLPLPGLPPAPPEPPGILAPQPPDVGSSDPLSMVGGSQGRSPSYES
modifications: albumin-binding agent conjugated
The molecule B10 returned an EC50 under setting [2] of 2.06 nM.

B11: Compound 5.13: FGF21D46C mutant (SEQ NO: 7) modified by the albumin-binding agent of Example 2.4 (conjugate)
chain: HPIPDSSPLLQFGGQVRQRYLYTDDAQQTEAHLEIREDGTVGGAACQSPESLLQLKALKPGVIQILGVKTSRFLCQRPDGALYGSLHFDPEACSFRERLLEDGYNVYQSEAHGLPLHLPGNKSPHRDPAPRGPARFLPLPGLPPAPPEPPGILAPQPPDVGSSDPLSMVGGSQGRSPSYES
modifications: albumin-binding agent of Example 2.4
In turn, B11 showed an EC50 under setting [2] of 1.84 nM.

B12: Compound 5.5: FGF21H125C mutant (SEQ NO: 9) modified by the albumin-binding agent of Example 2.1 (conjugate)
chain: HPIPDSSPLLQFGGQVRQRYLYTDDAQQTEAHLEIREDGTVGGAADQSPESLLQLKALKPGVIQILGVKTSRFLCQRPDGALYGSLHFDPEACSFRERLLEDGYNVYQSEAHGLPLHLPGNKSPCRDPAPRGPARFLPLPGLPPAPPEPPGILAPQPPDVGSSDPLSMVGGSQGRSPSYES
modifications: albumin-binding agent of Example 2.1
B12: the EC50 under setting [2] came out at 0.52 nM.

B13: Compound 5.2: FGF21D38C mutant (SEQ NO: 6) modified by the albumin-binding agent of Example 2.1 (conjugate)
chain: HPIPDSSPLLQFGGQVRQRYLYTDDAQQTEAHLEIRECGTVGGAADQSPESLLQLKALKPGVIQILGVKTSRFLCQRPDGALYGSLHFDPEACSFRERLLEDGYNVYQSEAHGLPLHLPGNKSPHRDPAPRGPARFLPLPGLPPAPPEPPGILAPQPPDVGSSDPLSMVGGSQGRSPSYES
modifications: albumin-binding agent of Example 2.1
The molecule B13 yielded an EC50 under setting [2] of 1.99 nM.

B14: Compound 5.14: FGF21K122C mutant (SEQ NO: 8) modified by the albumin-binding agent of Example 2.4 (conjugate)
chain: HPIPDSSPLLQFGGQVRQRYLYTDDAQQTEAHLEIREDGTVGGAADQSPESLLQLKALKPGVIQILGVKTSRFLCQRPDGALYGSLHFDPEACSFRERLLEDGYNVYQSEAHGLPLHLPGNCSPHRDPAPRGPARFLPLPGLPPAPPEPPGILAPQPPDVGSSDPLSMVGGSQGRSPSYES
modifications: albumin-binding agent of Example 2.4
Under setting [2], B14 registered an EC50 of 1.02 nM.

B15: Compound 5.9: FGF21H125C mutant (SEQ NO: 9) modified by the albumin-binding agent of Example 2.2 (conjugate)
chain: HPIPDSSPLLQFGGQVRQRYLYTDDAQQTEAHLEIREDGTVGGAADQSPESLLQLKALKPGVIQILGVKTSRFLCQRPDGALYGSLHFDPEACSFRERLLEDGYNVYQSEAHGLPLHLPGNKSPCRDPAPRGPARFLPLPGLPPAPPEPPGILAPQPPDVGSSDPLSMVGGSQGRSPSYES
modifications: albumin-binding agent conjugated
On to B15, for which the EC50 under setting [2] turned out to be 1.18 nM.
